These results are taken from the supplement of paper PMC12042874.

± gives the uncertainty stated by the source.

The series is described as follows: amyloid nucleation score (Sup35N fusion, yeast selection) (log enrichment); library NNK2; higher = more nucleation; inactive = no reads after selection. The essentials: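 Output and input plasmid inserts were sequenced by Illumina after psi-negative yeast carrying Sup35N fused to peptides of 20 random codons had been induced 24 hours with 100 μM copper sulfate and grown 7 days at 30°C on medium lacking adenine and uracil. The nucleation score is the DiMSum log enrichment of output over input reads, centred on the mode score of non-aggregating sequences. Sequences with under 100 input reads were excluded.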
Turning to SGSGSTAILGKTSGHVCLAI, the amyloid nucleation score is 0.713 ± 0.58.

Substance SGSRYAIVSYG had an amyloid nucleation score of -0.139 ± 0.53.

The substance SGTMSLLKMLLEYKLLT displayed an amyloid nucleation score of -0.678 ± 0.76.

In turn, SGWVLGYSCRKLLLGGLSRG displayed an amyloid nucleation score of 1.48 ± 0.31.

Consider SGYWNGVIRTKSNNDTVYVK, for which the amyloid nucleation score was -0.395 ± 0.22.

With SHFVCMWFYYISTWKCS, the amyloid nucleation score is -0.766 ± 0.48.

Turning to SHGEKSVDDEGSGIGERWQC, the amyloid nucleation score was determined as 1.27 ± 0.33.

For the substance SHRPWVWGQNISMKYRSVLK, the amyloid nucleation score worked out at 3.7 ± 0.057.

SIANLPFISLL gave an amyloid nucleation score of -1.62 ± 0.54.

SICASWNRINGIVTKLGWSE gave an amyloid nucleation score of -0.739 ± 0.32.

The substance SICRPIMSESWIASPCVLVG came in with an amyloid nucleation score of -0.012 ± 0.24.

On to SIGLLTGKWLPSLMVLYLLV, for which the amyloid nucleation score was found to be 1.29 ± 0.44.

SIGPLLHMCSFVFLEVRIIF registered an amyloid nucleation score of 1.83 ± 0.15.

Take SIHDVVYLGPVVVAKDSSVF: the amyloid nucleation score result was “inactive”.

Take SIIWQRLLGIFNFLGAPESM: the amyloid nucleation score result is “inactive”.

SILALTE: the amyloid nucleation score is -0.072 ± 1.1.

In turn, SILFNVARGCAGVPNLKSYS gave an amyloid nucleation score of -0.43 ± 0.56.

SILNDESFILLDILMVHFEY: the amyloid nucleation score was -0.547 ± 0.35.

Consider SIQLRVK, for which the amyloid nucleation score result is “inactive”.

Turning to SIRRTLVGQRAHEGKFWYGV, the amyloid nucleation score was -0.504 ± 0.63.

The substance SISALLFIPAHRTIMAG showed an amyloid nucleation score of -1.69 ± 1.1.

With SISIACCA, the amyloid nucleation score came out at 6.991 ± 0.031.

On to SITMFQCQRVCASLQYVTGT, for which the amyloid nucleation score worked out at 6.968 ± 0.063.

Consider SIVMFVCDLRNQPTAIFRDR, for which the amyloid nucleation score stood at 8.256 ± 0.074.

The substance SKDLSISQWSLGWLCHVWHT returned an amyloid nucleation score of -0.153 ± 0.79.

In turn, SKGRYAYRRMGAYLCSD yielded an amyloid nucleation score of 1.48 ± 0.43.

As for SKGSTGLRIVLFHFTCVVID, the amyloid nucleation score amounted to 1.99 ± 0.17.

SKGYYTLKVTYWTFR returned an amyloid nucleation score of -0.745 ± 0.44.

Substance SKLRYNFR registered an amyloid nucleation score of -0.573 ± 0.32.

Turning to SKPCGKVIYWKDRLSKLSEK, the amyloid nucleation score result is “inactive”.

Turning to SKRFRLTIDGIGVYRW, the amyloid nucleation score is 0.649 ± 0.22.

Regarding SKTLAGIWSDGVHAEFDIKG, the amyloid nucleation score is -0.573 ± 0.79.

Substance SKVNVVVDNMG gave an amyloid nucleation score of -0.125 ± 0.39.

SKYMRFGDTFLFARMHGKGD yielded an amyloid nucleation score of 4.49 ± 0.048.

SLDCPGFGRAYV showed an amyloid nucleation score of 1.62 ± 0.16.

The substance SLDETSPLVWEWEICSDLYN returned an amyloid nucleation score of 0.68 ± 0.56.

Take SLDQFSLSPKAVQRVACVAQ: the amyloid nucleation score is 0.251 ± 0.54.

Substance SLFCVYYNDSSLLSYSVWQI gave an amyloid nucleation score of 5.75 ± 0.06.

With SLFITASYYNFRG, the amyloid nucleation score worked out at 3.62 ± 0.049.

On to SLGIVNSHIFAMWTFSSMGA, for which the amyloid nucleation score worked out at 3.74 ± 0.065.

In turn, SLGNQIQVCISLPSMPVTPW returned an amyloid nucleation score of 0.512 ± 0.66.

With SLGPRRSCCTIWKVWAYAGS, the amyloid nucleation score stood at 0.241 ± 0.42.

The substance SLGSSWCNSDLLAL registered an amyloid nucleation score of -0.311 ± 1.1.

For SLGTFVRHTEWSSKNEAFPV, the amyloid nucleation score result is “inactive”.

With SLIGTRLIGAAGISSVKRLY, the amyloid nucleation score worked out at 0.208 ± 0.46.

SLILDNVDEGQSFSMGVCLG showed an amyloid nucleation score of 0.462 ± 0.66.

In turn, SLKANYGWLISNAWDMFHLG displayed an amyloid nucleation score of -0.467 ± 0.74.

As for SLKMRNRWGIDVVE, the amyloid nucleation score turned out to be 0.386 ± 0.23.

SLKTVAFHSEMFFCSTLVDM yielded an amyloid nucleation score of 0.153 ± 0.8.

Turning to SLLFVNNWFSVCRKASCIGN, the amyloid nucleation score came to 7.787 ± 0.052.

The substance SLLNQLIKRNKSNAYVVHGI returned an amyloid nucleation score of -0.275 ± 0.4.

SLLYRD: the amyloid nucleation score is -0.817 ± 0.48.

With SLNSGFRDPIYWSVLRRSPS, the amyloid nucleation score was 6.81 ± 0.086.

The substance SLQRIKGNFQPMVFAINMFN displayed an amyloid nucleation score of 4.6 ± 0.11.

SLRWDYLHLVWRHAEGGYGK gave an amyloid nucleation score of 6.678 ± 0.038.

For SLSDELAERNSRCTRLTPWM, the amyloid nucleation score was determined as 1.61 ± 0.23.

The substance SLSNCSTWTSF gave an amyloid nucleation score of 0.02 ± 1.

Regarding SLSTHIFLSSGLSLTFKKRS, the amyloid nucleation score result is “inactive”.

SLSTSFLYDFWVLNSADPRY displayed an amyloid nucleation score of -0.258 ± 0.76.

Consider SLSVI, for which the amyloid nucleation score was determined as 0.264 ± 0.65.

As to SLTTLCNLTIWDH, the amyloid nucleation score is 0.756 ± 0.53.

SLTTLTAVHSCFRLNAWLYF had an amyloid nucleation score of 0.477 ± 0.29.

In turn, SLVIKTLMIFAYSGATVSRG gave an amyloid nucleation score of -0.545 ± 0.64.

As to SLVSFFVIKRSYFSTRLCTG, the amyloid nucleation score is -0.399 ± 0.61.

As for SLWVASGQSFSDSRQRNVAG, the amyloid nucleation score turned out to be 2.27 ± 0.19.

Substance SMICGFKLASHSVG yielded an amyloid nucleation score of -0.65 ± 0.45.

Regarding SMIDGWGRVFHYAVVQISMN, the amyloid nucleation score stood at 6.158 ± 0.032.

In turn, SMLESNFRGFFYQ showed an amyloid nucleation score of 2.56 ± 0.15.

Substance SMPLASSMSKHNHWHLV returned an amyloid nucleation score of 0.13 ± 0.35.

In the case of SMPPRLQSKLPRDFSAQSVK, the amyloid nucleation score came out at 4.63 ± 0.1.

Turning to SMTNNMGLLE, the amyloid nucleation score is -0.979 ± 0.76.

As for SMYVINRSI, the amyloid nucleation score is -0.198 ± 0.31.

Consider SNFETDTL, for which the amyloid nucleation score is 1.82 ± 0.14.

As for SNGPW, the amyloid nucleation score was -0.512 ± 0.76.

In the case of SNITDWVTTKVRMEKRPVVQ, the amyloid nucleation score result is “inactive”.

SNMIHDEIWLMGEDSDF showed an amyloid nucleation score of 0.674 ± 0.49.

SNPDSLVLAGMLARMAYRKL returned an amyloid nucleation score of -0.423 ± 0.61.

As to SNPTSVQVRFLLHILLKSVL, the amyloid nucleation score was determined as 0.629 ± 0.52.

The substance SNRHSVRKAAWIWGRDFLRA had an amyloid nucleation score of 0.346 ± 0.38.

In turn, SNSCHNAATRGYR displayed an amyloid nucleation score of 0.315 ± 0.74.

With SPFNRLHY, the amyloid nucleation score was -0.101 ± 1.1.

SPGRLFATEFVVVYVKYHSP displayed an amyloid nucleation score of -0.121 ± 0.37.

SPLHRDCGNQLTE showed an amyloid nucleation score of 0.814 ± 0.17.

With SPLSSKDCYGKTERSVWHVM, the amyloid nucleation score is 0.588 ± 0.4.

In turn, SPSDSAL displayed an amyloid nucleation score of -0.501 ± 0.64.

With SQFLEYTFEYFSGFPGRLVE, the amyloid nucleation score is -0.316 ± 0.42.

On to SQILTMWYLVIYYMSNRFGG, for which the amyloid nucleation score entry is “inactive”.

SQLYE showed an amyloid nucleation score of 1.23 ± 0.44.

Consider SQPSDWVYFNVGYCCVLMCL, for which the amyloid nucleation score was 9.398 ± 0.027.

In turn, SQSHNIYQ displayed an amyloid nucleation score of 3.46 ± 0.14.

SQVSHLRLDVPVAEI had an amyloid nucleation score of 4.04 ± 0.078.

For the substance SRCNISTRLLATLDVLQEKE, the amyloid nucleation score turned out to be 2.25 ± 0.08.

On to SRCVCMFTEIPATAFPMKVR, for which the amyloid nucleation score was -0.94 ± 0.64.

The substance SRDVSLRYCTWCPGVN displayed an amyloid nucleation score of 0.789 ± 0.22.

SRERPHFPLLIPGENMIMLM: the amyloid nucleation score was determined as 1.04 ± 0.1.

In turn, SRFRIMSNLGVKWGPCRVYL returned an amyloid nucleation score of 0.164 ± 0.8.

SRICLLTYMGSIINRDVSVY showed an amyloid nucleation score of -1.6 ± 0.55.

In the case of SRKLRLVRGFWG, the amyloid nucleation score is -0.067 ± 0.62.

The substance SRLGFMAKPLMDVS returned an amyloid nucleation score of 2.79 ± 0.09.

The substance SRLISFLRSRQDDSQISLGW had an amyloid nucleation score of -0.445 ± 0.49.

Take SRLKIFIPNVFL: the amyloid nucleation score was -0.067 ± 1.1.

For the substance SRLLIREYNLVSNDKFIYFV, the amyloid nucleation score came out at 3.01 ± 0.073.

With SRLRRKEYGDWFFYYGWSTN, the amyloid nucleation score is 0.237 ± 1.
